According to the supplement of paper PMC9732359:
± gives the uncertainty stated by the source.

Experiment: protein stability index of a GFP-peptide fusion (yeast GPS) (PSI 1-4); higher = more stable; sorted into four equal gates, so the index is relative within each strain
How it was run: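 Each library plasmid carries Cherry plus GFP with a tiled 17-residue yeast protein peptide fused downstream, and the pooled library was carried in yeast. Mid-log cultures in leucine-free medium were sorted into four equal gates by GFP/Cherry ratio. Reads from Illumina sequencing of PCR-amplified plasmids from each gate were assigned to strains by barcodes. Per peptide, the protein stability index was computed as the summed products of gate read frequency and gate number.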

| Sequence | protein stability index (doa10∆) | protein stability index (pdr5∆) | protein stability index (san1∆) | protein stability index (ubr1∆) |
| --- | --- | --- | --- | --- |
| CIIFITFEFINIAFDAH [YML031W/NDC1] | 1.23 ± 0.043 | 1.44 ± 0.044 | 1.38 ± 0.085 | 1.32 ± 0.032 |
| KAASSTRIFQALPRKLR [POP1] | 2.64 ± 0.1 | 3.36 ± 0.15 | 2.76 ± 0.12 | 2.77 ± 0.086 |
| KQSGFGGQTKPVFHKKA [RPL42A] | 2.74 ± 0.04 | 3.14 ± 0.053 | 2.89 ± 0.043 | 3.045 ± 0.029 |
| NVPWPQNSYADKVTSQA [RPP1] | 2.04 ± 0.094 | 2.19 ± 0.15 | 1.83 ± 0.1 | 2.25 ± 0.096 |
| GLIYSFNEENGEDSTKP [POP1] | 3.25 ± 0.098 | 3.21 ± 0.18 | 2.86 ± 0.26 | 3.1 ± 0.17 |
| LGLAKSVHHARVLITQR [RPS9A] | 2.34 ± 0.12 | 2.86 ± 0.15 | 2.61 ± 0.17 |  |
| MAPVKSQESINQKLALV [RPL30] | 2.05 ± 0.11 | 2.53 ± 0.14 | 2.18 ± 0.13 | 2.25 ± 0.061 |
| WLEEYHPKLIKNKSGKI [FAS1] | 1.59 ± 0.12 | 1.83 ± 0.075 | 1.42 ± 0.092 | 1.67 ± 0.046 |
| DCLSFAPTLSQTYINQE [SSN2] | 2.69 ± 0.074 | 2.76 ± 0.081 | 2.77 ± 0.087 | 2.91 ± 0.048 |
| ASTVAKTAPIQESFVPN [YOR098C/NUP1] | 2.97 ± 0.16 | 2.83 ± 0.11 | 2.94 ± 0.3 | 3.21 ± 0.061 |
| SGEDVIIGKTTPISPDE [RPB2] | 3.26 ± 0.21 |  | 3.49 ± 0.083 | 3.35 ± 0.085 |
| EYIDAEEEESILIAMQP [RPB2] | 3.37 ± 0.076 | 3.41 ± 0.091 | 3.13 ± 0.067 | 3.46 ± 0.091 |
| HVEKERASTELSQSRIK [YIL149C/MLP2] | 3.01 ± 0.089 | 2.93 ± 0.066 | 3.12 ± 0.095 | 3.1 ± 0.074 |
| SAKPSQIPTVSSPLGFE [SIR4] | 3.14 ± 0.064 | 2.98 ± 0.058 | 2.85 ± 0.068 | 3.03 ± 0.047 |
| TPAEMSRPATTTRNGFM [FAS2] | 2.35 ± 0.038 | 2.57 ± 0.041 | 2.52 ± 0.05 | 2.52 ± 0.042 |
| LDISVFLLEKAGERKIP [TAF14] | 2.26 ± 0.078 | 2.43 ± 0.072 | 2.44 ± 0.063 | 2.16 ± 0.061 |
| EMVKDRGYFITQEEVEL [RPB5] | 2.62 ± 0.071 | 2.08 ± 0.071 | 1.74 ± 0.066 | 2.1 ± 0.042 |
| LKQNAIRARIPFYGSYT [SRP54] | 2.82 ± 0.077 | 2.8 ± 0.063 | 2.5 ± 0.087 | 2.89 ± 0.062 |
| SLSDNDLAVCATIIGII [ECM29] | 2.71 ± 0.072 | 2.83 ± 0.056 | 2.78 ± 0.053 | 2.75 ± 0.038 |
| DVSLLLQRDLFIRLPHW [RGR1] | 2.5 ± 0.087 | 2.51 ± 0.063 | 2.2 ± 0.073 | 2.55 ± 0.083 |
| EDMETQASDPSKKKKNI [RPC53] | 3.27 ± 0.14 | 3.44 ± 0.19 | 3.24 ± 0.16 | 3.33 ± 0.15 |
| QQQGQIPQSQQVPQVRS [SNF5] | 2.37 ± 0.036 | 2.73 ± 0.042 | 2.45 ± 0.063 | 2.36 ± 0.048 |
| TLLPGLQDEVMNIKPVQ [RPS2] | 1.21 ± 0.14 | 1.35 ± 0.13 | 1.18 ± 0.26 | 1.09 ± 0.14 |
| NKKSEQALDISKKGKPT [SRP72] | 3.1 ± 0.1 | 3.02 ± 0.071 | 2.81 ± 0.061 | 3.04 ± 0.073 |
| VLMGKNTMVRRAIRGFL [RPP0] | 3.27 ± 0.26 |  | 3.34 ± 0.17 |  |
| TANATANVNASAMPAPY [DSN1] | 3.11 ± 0.042 | 3.17 ± 0.037 | 3.083 ± 0.029 | 3.1 ± 0.034 |

| Sequence | protein stability index (doa10∆) | protein stability index (pdr5∆) | protein stability index (san1∆) | protein stability index (ubr1∆) |
| --- | --- | --- | --- | --- |
| REGLIDTAVKTAETGYI [RPO21] | 1.13 ± 0.058 | 1.37 ± 0.099 | 1.23 ± 0.18 | 1.13 ± 0.051 |
| EQSELLKAQITSLKCLV [SNF2] | 1.92 ± 0.049 | 1.83 ± 0.048 | 2.16 ± 0.074 | 1.99 ± 0.042 |
| GKGIKLSIAEERDRRRA [RPS4A] | 2.59 ± 0.12 | 2.87 ± 0.16 | 3.35 ± 0.072 | 3.23 ± 0.09 |
| TLLRLNELLDLTESQTE [RPN5] | 2.39 ± 0.089 | 2.18 ± 0.092 | 2.71 ± 0.11 | 2.74 ± 0.072 |
| LKELRIDNSPQAISYLH [GRR1] | 2.17 ± 0.054 | 2.55 ± 0.051 | 2.08 ± 0.057 | 2.4 ± 0.034 |
| VNLPGGILRRKSESDEL [RRP4] | 3.31 ± 0.15 | 3.29 ± 0.15 | 2.88 ± 0.1 | 3.29 ± 0.14 |
| SEHDKKRLSAALSKFLT [YML103C/NUP188] | 2.99 ± 0.09 | 3.08 ± 0.09 | 3.06 ± 0.068 | 3.13 ± 0.071 |
| ASSAAAGAAGAAAGGDA [RPP2B] | 2.87 ± 0.11 | 3.02 ± 0.084 | 3.21 ± 0.071 | 2.87 ± 0.095 |
| LPNQFPLKIHRTPYLTS [SWI1] | 2.07 ± 0.042 | 1.72 ± 0.045 | 1.65 ± 0.074 | 1.72 ± 0.038 |
| SYYELETIIFDSELNRA [RRI1] | 2.96 ± 0.11 | 3.13 ± 0.075 | 2.97 ± 0.056 | 2.93 ± 0.056 |
| GILDEIMFNHARIIRSE [RGR1] | 2.75 ± 0.061 | 2.98 ± 0.071 | 3.08 ± 0.069 | 3.07 ± 0.032 |
| ALFVFYSPNTLGHPDNY [COB] | 1.39 ± 0.09 | 1.36 ± 0.069 | 2.06 ± 0.11 | 1.87 ± 0.054 |
| LPSGVLSRGDDEVTIRR [SMC3] | 3.44 ± 0.083 | 3.25 ± 0.12 | 3.2 ± 0.069 | 3.27 ± 0.068 |
| NIPRRELKINLPLTEHK [SRB4] | 2.93 ± 0.094 | 2.66 ± 0.072 | 3.23 ± 0.058 | 3.03 ± 0.12 |
| IELSDGSTFKVNQEFIF [YJL039C/NUP192] | 3.23 ± 0.088 | 3.07 ± 0.059 | 2.78 ± 0.061 | 3.13 ± 0.064 |
| FKKTLRSRISSPHGLIN [SRB4] | 2.09 ± 0.049 | 2.15 ± 0.056 | 2.53 ± 0.065 | 2.15 ± 0.042 |
| MSYVVRILSTLDRELLK [RPT3] | 2.31 ± 0.098 | 2.24 ± 0.1 | 2.55 ± 0.057 | 2.88 ± 0.094 |
| NFLLPDIFGDSELFDEW [ISW2] | 2.25 ± 0.059 | 2.46 ± 0.076 | 2.79 ± 0.07 | 2.72 ± 0.059 |
| TAGAAANALGGLGVNRR [SSN3] | 3.51 ± 0.11 | 3.04 ± 0.11 | 3.38 ± 0.089 | 3.24 ± 0.1 |
| RKQRVKKKTKKELELER [SWI1] | 2.69 ± 0.13 | 2.96 ± 0.13 | 3.56 ± 0.12 | 2.2 ± 0.13 |
| ERGHPKDNARIYQVPEK [POP1] | 3.02 ± 0.082 | 3.02 ± 0.1 | 3 ± 0.093 | 3.11 ± 0.05 |
| KPYSGKLLKVCLTMFED [ECM29] | 2.18 ± 0.056 | 2.17 ± 0.058 | 2.67 ± 0.045 | 2.36 ± 0.058 |
| LEMLKPCVEDGFVIQDR [RPB2] | 3.17 ± 0.086 | 3.29 ± 0.12 | 3.19 ± 0.19 | 3.23 ± 0.077 |
| LHNIWSNGLLSIVLLLL [YML103C/NUP188] | 1.38 ± 0.069 | 1.34 ± 0.059 | 1.5 ± 0.14 | 1.54 ± 0.12 |
| ARDEILPLRLQFNEFIQ [PGD1] | 2.55 ± 0.083 | 3.01 ± 0.065 | 2.74 ± 0.078 | 2.79 ± 0.058 |
| ELDILNKGWKLQSLNES [SRB4] |  | 3.05 ± 0.21 | 3 ± 0.18 |  |
